Measurements: paper PMC9672126

B1: Flag-BNIP3 wild-type (BCL2/adenovirus e1B 19 kDa protein interacting protein 3) [rat] / GFP-LC3 (microtubule-associated protein 1 light chain 3; plasmid pEGFP-C1-LC3B) [not stated] (parent)
chain 1: MSQSGEENLQGSWVELHFSNGNGSSVPASVSIYNGDMEKILLDAQHESGRSSSKSSHCDSPPRSQTPQDTNRAEIDTHSFGEKNSTLSEEDYIERRREVESILKKNSDWIWDWSSRPENVPPKEFLFKHPKRTATLSMRNTSVMKKGGIFSADFLKVFLPSLLLSHLLAIGLGIYIGRRLTTSTSTF
chain 2: not shown

Variants of: B1
Assay: co-IP (anti-Flag immunoprecipitation, western blot, quantified)
Conditions: with GFP-LC3 (microtubule-associated protein 1 light chain 3; plasmid pEGFP-C1-LC3B); HeLa cells, 48 h after transfection; n = 3; means ± SEM; read off a plot

Row | Variant | ratio to parent (Folds of Control)
1 | chain 1 S60A T66A | 0.13
2 | chain 1 S60E | 0.85
3 | chain 1 S60D | 0.85
4 | chain 1 S60A | 0.33
